Series [1] addresses T1, Fgd (F420-dependent glucose 6-phosphate dehydrogenase MSMEG_0777) (Mycolicibacterium smegmatis, UniProt A0QQJ4).
T1 construct: recombinant in E. coli BL21(DE3), Ni-NTA purified; LLHT family
T1 sequence (A0QQJ4 2-336): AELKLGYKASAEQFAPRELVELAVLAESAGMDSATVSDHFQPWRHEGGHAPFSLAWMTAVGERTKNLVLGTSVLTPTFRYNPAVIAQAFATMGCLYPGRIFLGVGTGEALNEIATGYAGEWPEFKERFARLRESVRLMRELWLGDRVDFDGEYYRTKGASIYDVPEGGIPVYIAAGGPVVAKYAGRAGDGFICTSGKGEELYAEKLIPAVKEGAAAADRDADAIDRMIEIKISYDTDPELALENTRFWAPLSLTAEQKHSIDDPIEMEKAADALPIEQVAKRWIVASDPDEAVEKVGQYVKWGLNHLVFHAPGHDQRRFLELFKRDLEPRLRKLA
Put plainly: intrinsic tryptophan fluorescence quenching. The format is binding. From the text:
intrinsic tryptophan fluorescence quenching on Fgd (F420-dependent glucose 6-phosphate dehydrogenase MSMEG_0777)

The target in series [2] is T2, MSMEG_3380 (promiscuous F420H2-dependent reductase, FDOR-B) (Mycolicibacterium smegmatis, UniProt A0QXP8).
T2 construct: recombinant in E. coli BL21(DE3), Ni-NTA purified; dimer
Put plainly: intrinsic tryptophan fluorescence quenching. The format is binding. The conditions noted are these: read-out: F420 Kd. The text has this:
intrinsic tryptophan fluorescence quenching on MSMEG_3380 (promiscuous F420H2-dependent reductase, FDOR-B)

The target of series [3] is T3, MSMEG_2027 (F420H2-dependent quinone reductase, FDOR-A) (Mycolicibacterium smegmatis, UniProt A0QU01).
T3 construct: recombinant in E. coli BL21(DE3), Ni-NTA purified; monomer
T3 sequence (A0QU01 1-140): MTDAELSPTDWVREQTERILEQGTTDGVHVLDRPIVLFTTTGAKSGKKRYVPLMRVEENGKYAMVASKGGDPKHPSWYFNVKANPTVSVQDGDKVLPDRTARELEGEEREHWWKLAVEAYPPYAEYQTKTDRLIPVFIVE
Description: intrinsic tryptophan fluorescence quenching. The class given is binding. Particulars: read-out: F420 Kd. The text has this:
intrinsic tryptophan fluorescence quenching on MSMEG_2027 (F420H2-dependent quinone reductase, FDOR-A)

Substrate in series [4]: CC1=CC(=O)c2ccccc2C1=O
Put plainly: purified protein. The class given is biochemical, Mycolicibacterium smegmatis. Particulars: 50 μM long-chain F420H2 (mycobacterial), 200 mM TrisHCl, 0.1% Triton X-100, pH 8.0.

Substrate in series [5]: O=C1C=CCCC1
Description: purified protein. The format is biochemical, Mycolicibacterium smegmatis. Particulars: 50 μM long-chain F420H2 (mycobacterial), 200 mM TrisHCl, 0.1% Triton X-100, pH 8.0.

The term Kd denotes the free concentration of one partner at which half of the binding sites on the other are occupied at equilibrium, for simple one-to-one binding. The Km is the substrate concentration at which the rate is half of its maximum. By kcat is commonly meant the number of substrate molecules converted per active site and unit of time at saturation. In general, kcat/Km refers to the turnover number divided by the Michaelis constant.

In the case of `C[C@H](OP(=O)(O)OC[C@@H](O)[C@@H](O)[C@@H](O)Cn1c2nc(=O)[nH]c(=O)c-2cc2ccc(O)cc21)C(=O)N[C@@H](CCC(=O)N[C@@H](CCC(=O)O)C(=O)O)C(=O)O` [F420-2, short-chain F420], the Kd in series [1] amounted to 4180 ± 290 nM; in series [2] it was 570 ± 50 nM; in series [3], 1430 ± 120 nM.

B1: MSMEG_2027 (F420H2-dependent quinone reductase, FDOR-A) (Mycolicibacterium smegmatis MC2 155) (protein)
chain: MTDAELSPTDWVREQTERILEQGTTDGVHVLDRPIVLFTTTGAKSGKKRYVPLMRVEENGKYAMVASKGGDPKHPSWYFNVKANPTVSVQDGDKVLPDRTARELEGEEREHWWKLAVEAYPPYAEYQTKTDRLIPVFIVE
notes: recombinant in E. coli BL21(DE3), Ni-NTA purified; monomer
For the molecule B1, in series [4], the Km was 25.6 ± 9.2 µM, the kcat stood at 0.084 ± 0.007 s⁻¹ and the kcat/Km was found to be 3280 M⁻¹ s⁻¹.

B2: MSMEG_3380 (promiscuous F420H2-dependent reductase, FDOR-B) (Mycolicibacterium smegmatis MC2 155) (protein)
chain: MVAVPEGYESLLERPLYGHLATVRPDGTPQVNAMWFAWDGEVLRFTHTTKRQKYRNIKANPAVAMSVIDPDNPYRYLEVRGLVEDIVPDPTGAFYLKLNDRYDGPLTEPPADKADRVIIVVRPTAFSKQ
notes: recombinant in E. coli BL21(DE3), Ni-NTA purified; dimer
For B2, in series [5], the Km is 259 ± 41 µM, the kcat was 0.025 ± 0.001 s⁻¹ and the kcat/Km was 96 M⁻¹ s⁻¹.
